B1: Pos 95 Thr (antibody, V domains shown)
VH: EVQLVESGGGLVQPGGSLRLSCAASGFTFSSYAMSWVRQAPGKGLEWVATISDGGSFTYYLDNVRGRFTISRDNAKNSLYLQMNSLRAEDTAVYYCARTVGHTTFWYFDVWGRGTLVTVSS
VL: DIVMTQSPDSLAVSLGERATINCRASKSVSAAGYNFMHWYQQKPGQPPKVLIYYASNLESGVPDRFSGSGSGTDFTLTISSLQAEDVAVYYCLHSREFPFTFGGGTKVEIKR
notes: also called CDRH3 D95>T
B2: Pos 100D Trp (antibody, V domains shown)
VH: B1 VH with T99D, F108W
VL: B1 VL
notes: also called CDRH3 F100D>W
B3: Pos 96 Thr (antibody, V domains shown)
VH: B1 VH with T99D, V100T
VL: B1 VL
notes: also called CDRH3 V96>T
B4: Pos 98 Trp (antibody, V domains shown)
VH: B1 VH with T99D, H102W
VL: B1 VL
notes: also called CDRH3 H98>W
B5: Pos 100D Val (antibody, V domains shown)
VH: B1 VH with T99D, F108V
VL: B1 VL
notes: also called CDRH3 F100D>V
B6: Pos 101 Val (antibody, V domains shown)
VH: B1 VH with T99D, D109V
VL: B1 VL
notes: also called CDRH3 D101>V
B7: Pos 96 Trp (antibody, V domains shown)
VH: B1 VH with T99D, V100W
VL: B1 VL
notes: also called CDRH3 V96>W
B8: Pos 100C Trp (antibody, V domains shown)
VH: B1 VH with T99D, Y107W
VL: B1 VL
notes: also called CDRH3 Y100C>W
B9: Pos 100C Val (antibody, V domains shown)
VH: B1 VH with T99D, Y107V
VL: B1 VL
notes: also called CDRH3 Y100C>V
B10: Humanised 10G8 H0 IGHV3_23 + L1 IGKV1_5 (antibody, V domains shown)
VH: B1 VH with T99D
VL: DIVMTQSPDSLAVSLGERATINCRASKSVSAAGYNFMHWYQQKPGQPPKVLIYKASSLESGVPDRFSGSGSGTDFTLTISSLQAEDVAVYYCLHSREFPFTFGGGTKVEIK
notes: built from the stated exchange of CDRL2; residue limits derived by me
B11: Humanised 10G8 H0 + L1 IGKV1_5 (antibody, V domains shown)
VH: B1 VH with S31N, T99D
VL: B10 VL
notes: built from the stated exchange of CDRL2; residue limits derived by me; Human gamma 1/kappa constant regions
B12: Humanised 10G8 H0 IGHV3_7 + L1 IGKV4_1 (antibody, V domains shown)
VH: B1 VH with A33W, T99D
VL: B10 VL with K54W, S57T, L58R
notes: built from the stated CDR exchanges; residue limits derived by me
B13: Humanised 10G8 H0 IGHV3_7 + L1 (antibody, V domains shown)
VH: B1 VH with A33W, T99D
VL: B10 VL with K54Y, S57N
notes: built from the statement that the germline CDRH1 was exchanged for the mouse CDRH1 in H0; Human gamma 1/kappa constant regions

Residue numbers refer to the chain shown, from its start. Names may count otherwise.

One assay has as its target T1, Human OSM (human, UniProt P13725 26-221).
T1 construct: Recombinant human OSM; also called hOSM; human Oncostatin M
T1 sequence: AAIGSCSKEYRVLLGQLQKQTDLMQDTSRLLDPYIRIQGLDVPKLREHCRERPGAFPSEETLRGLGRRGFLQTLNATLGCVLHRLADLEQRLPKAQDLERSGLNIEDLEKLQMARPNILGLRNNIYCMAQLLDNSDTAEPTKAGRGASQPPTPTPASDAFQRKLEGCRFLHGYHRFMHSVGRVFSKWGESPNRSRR
Description: SPR (ProteOn XPR36 or Biacore T100), captured supernatant, OSM as analyte [continued]. As to the method:
The initial kinetic analyses for the CDRH3 screen were carried out on the ProteOn XPR36 (Biorad Laboratories) and certain supernatants were selected for more accurate kinetic analysis on the BiaCore T100.
For the ProteOn analysis, anti-human IgG (GE Healthcare/Biacore BR-1008-39) was coupled to a GLM chip (Biorad Laboratories 176-5012) by primary amine coupling. The CDRH3 variants were captured directly on to this surface and recombinant human OSM was passed over the captured antibody surface at 256, 64, 16, 4 and 1 nM, with a buffer injection alone (i.e. 0 nM) used to double reference the binding curves. Following the OSM binding event, the capture surfaces were regenerated: with 3M MgCl₂ the regeneration removed the previously captured antibody ready for another cycle of capture and binding analysis. The data was then fitted to the 1:1 model (with mass transport) inherent to the ProteOn analysis software. The run was carried out using HBS-EP (Biacore/GE-Healthcare BR-1006-69) and the analysis temperature was 25° C.
A similar method was used for analysis of constructs using the Biacore T100, anti-human IgG (GE Healthcare/Biacore BR-1008-39) was coupled to a CM5 chip (GE Healthcare/Biacore BR-1006-68) by primary amine coupling, antibodies were captured on this surface and recombinant human OSM was passed over the captured antibody surface at 256, 64, 16, 4 and 1 nM, with a buffer injection alone (i.e. 0 nM) used to double reference the binding curves. Regeneration was by using pulses of 3M 3M MgCl₂ or 100 mM phosphoric acid or using both reagents. The data was fitted to the 1:1 model inherent to the Biacore T100 analysis software. The run was carried out using HBS-EP (Biacore/GE-Healthcare BR-1006-69) and the analysis temperature was 25° C.
(In SPR one partner is held on a chip, and binding of the other changes the refractive index at the surface.)
On to B1, for which the equilibrium dissociation constant (Kd) (as a rule, a measure of binding affinity in units of concentration) was 0.632 nM.

For the molecule B2, binding was characterised by a dissociation constant (Kd) of 0.711 nM.

The molecule B3 returned a Kd of 0.497 nM. The Kd values of the last two molecules are within 1.5-fold of each other.

Turning to B4, binding was characterised by a dissociation constant (Kd) of 0.317 nM.

As to B5, binding was characterised by a dissociation constant (Kd) of 0.675 nM.

For B6, the Kd came out at 0.44 nM. Against the preceding molecule, the Kd is about 1.5-fold lower.

B7: the affinity, expressed as Kd, was 0.979 nM.

With B8, the dissociation constant Kd came out at 0.687 nM.

The molecule B9 had a Kd of 0.56 nM.

Another assay concerns the target T2, Cynomolgus OSM (cynomolgus, UniProt A0A2K5VPC6 26-221).
T2 construct: also called Cyno OSM; cynomolgus macaque OSM
T2 sequence: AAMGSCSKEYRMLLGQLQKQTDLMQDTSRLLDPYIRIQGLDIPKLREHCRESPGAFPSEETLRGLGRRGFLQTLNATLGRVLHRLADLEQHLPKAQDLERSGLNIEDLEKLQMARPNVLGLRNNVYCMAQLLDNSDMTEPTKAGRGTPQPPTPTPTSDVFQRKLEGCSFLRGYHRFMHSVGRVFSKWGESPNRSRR
Description: BIAcore kinetics, transfection supernatant.
With B10, the Kd worked out at 8.89 nM; the koff (as a rule, the first-order rate constant of dissociation) is 0.000593 s⁻¹; the kon (commonly a measure of how fast the partners come together) was determined as 66700 M⁻¹ s⁻¹.

In the case of B11, the Kd came to 8.26 nM, the koff was 0.000557 s⁻¹ and the kon worked out at 67500 M⁻¹ s⁻¹.

Molecule B12 yielded a Kd of 34.9 nM, a koff of 0.00177 s⁻¹ and a kon of 50700 M⁻¹ s⁻¹.

For the molecule B13, the Kd was 24.2 nM, the koff was 0.815 s⁻¹ and the on-rate constant (kon) came out at 3.37e+07 M⁻¹ s⁻¹.

A further assay addresses T1, Human OSM. Description: BIAcore kinetics, transfection supernatant.
For the molecule B10, the Kd came out at 9.27 nM, the koff turned out to be 0.00066 s⁻¹ and the kon turned out to be 71100 M⁻¹ s⁻¹.

The molecule B11 showed a Kd of 9.33 nM, an off-rate constant (koff) of 0.00064 s⁻¹ and a kon of 68700 M⁻¹ s⁻¹.

For the molecule B12, the Kd was found to be 44.4 nM, the koff was 0.00163 s⁻¹ and the kon is 36800 M⁻¹ s⁻¹.

B13: the affinity, expressed as Kd, was 10.6 nM; the koff turned out to be 0.000967 s⁻¹; the kon was found to be 91000 M⁻¹ s⁻¹.

For the origin of these results see patent US20130251724A1 (GlaxoSmithKline, published 2013).
